{
  "source": "paper PMC4063770",
  "about": "“A Dimerized HMX1 Inhibits EPHA6/epha4b in Mouse and Zebrafish Retinas” (PLoS ONE, 2014)",
  "target": "the molecule itself",
  "assay": "native gel or EMSA; lysate in non-denaturing lysis buffer (20 mM Tris-HCl, 137 mM NaCl, 10% glycerol, 1% Triton X-100, 2 mM EDTA, pH 8.0), 5 ug on a 4-15% gel run without SDS, compared with a denaturing gel; Western blot with anti-HA",
  "data": [
    {"protein": "HA-tagged wild-type HMX1 (natural protein, HMX1 (NKX5-3), wild type; also called HA-HMX1; source: HEK 293T, transfected, in lysate) not shown", "values": [
      {"measurement": "stoichiometry N", "value": 2}
    ]}
  ]
}
